Reference: article PMC6133988, “Characterization of Arabidopsis thaliana Hydroxyphenylpyruvate Reductases in the Tyrosine Conversion Pathway” (Frontiers in Plant Science, 2018)

Assays:
Test in all cases: LC-MRM-MS product quantification, non-linear regression
Type in all cases: biochemical, Arabidopsis thaliana
[1] = substrate: O=C(O)C(=O)Cc1ccc(O)cc1; conditions: NADPH (2 mM), 100 mM potassium phosphate pH 7.0, 4 mM DTT, 40 μM ascorbate, 30 °C
Excerpt: (§1) LC-MRM-MS product quantification, non-linear regression on HPPR2

[2] = substrate: O=C(O)C(=O)Cc1ccccc1; conditions: NADPH (2 mM), 100 mM potassium phosphate pH 7.0, 4 mM DTT, 40 μM ascorbate, 30 °C
Excerpt: as §1

[3] = substrate: O=C(O)C(=O)CO; conditions: NADPH (2 mM), 100 mM potassium phosphate pH 7.0, 4 mM DTT, 40 μM ascorbate, 30 °C
Excerpt: as §1

[4] = substrate: O=C(O)C(=O)CO; conditions: NADH (2 mM), 100 mM potassium phosphate pH 7.0, 4 mM DTT, 40 μM ascorbate, 30 °C
Excerpt: LC-MRM-MS product quantification, non-linear regression on HPR1

[5] = substrate: O=C(O)C(=O)Cc1ccc(O)cc1; conditions: NADPH (2 mM), 100 mM potassium phosphate pH 7.0, 4 mM DTT, 40 μM ascorbate, 30 °C; remark: listed apart in the source
Excerpt: (§2) LC-MRM-MS product quantification, non-linear regression on HPPR3

[6] = substrate: O=C(O)C(=O)Cc1ccccc1; conditions: NADPH (2 mM), 100 mM potassium phosphate pH 7.0, 4 mM DTT, 40 μM ascorbate, 30 °C; remark: listed apart in the source
Excerpt: as §2

[7] = substrate: O=C(O)C(=O)CO; conditions: NADPH (2 mM), 100 mM potassium phosphate pH 7.0, 4 mM DTT, 40 μM ascorbate, 30 °C; remark: listed apart in the source
Excerpt: as §2

B1: HPPR2 (Arabidopsis thaliana) (protein)
chain: MESIGVLMMCPMSSYLENELEKRFNLLRFWTSPEKSVLLETHRNSIRAVVGNASAGADAQLISDLPNLEIVSSFSVGLDKIDLGKCKEKGIRVTNTPDVLTEDVADLAIGLILALLRRLCECDRYVRSGKWKQGEFQLTTKFSGKSVGIIGLGRIGTAIAKRAEAFSCPINYYSRTIKPDVAYKYYPTVVDLAQNSDILVVACPLTEQTRHIVDRQVMDALGAKGVLINIGRGPHVDEQELIKALTEGRLGGAALDVFEQEPHVPEELFGLENVVLLPHVGSGTVETRNAMADLVVGNLEAHFSGKSLLTPVV
notes: coding region from Arabidopsis cDNA in pDEST17, His-tagged, E. coli, Ni-NTA purified
Km [1]: 800 ± 160 µM | kcat [1]: 0.122 ± 0.0085 s⁻¹ | kcat/Km [1]: 157 ± 36.3 M⁻¹ s⁻¹ | Km [2]: 3700 ± 750 µM | kcat [2]: 0.0333 ± 0.00983 s⁻¹ | kcat/Km [2]: 9 ± 1.17 M⁻¹ s⁻¹ | Km [3]: 1050 ± 390 µM | kcat [3]: 0.926 ± 0.0788 s⁻¹ | kcat/Km [3]: 950 ± 296 M⁻¹ s⁻¹

B2: HPR1 (Arabidopsis thaliana) (protein)
chain: MAKPVSIEVYNPNGKYRVVSTKPMPGTRWINLLVDQGCRVEICHLKKTILSVEDIIDLIGDKCDGVIGQLTEDWGETLFSALSKAGGKAFSNMAVGYNNVDVEAANKYGIAVGNTPGVLTETTAELAASLSLAAARRIVEADEFMRGGLYEGWLPHLFVGNLLKGQTVGVIGAGRIGSAYARMMVEGFKMNLIYFDLYQSTRLEKFVTAYGQFLKANGEQPVTWKRASSMEEVLREADLISLHPVLDKTTYHLVNKERLAMMKKEAILVNCSRGPVIDEAALVEHLKENPMFRVGLDVFEEEPFMKPGLADTKNAIVVPHIASASKWTREGMATLAALNVLGRVKGYPIWHDPNRVDPFLNENASPPNASPSIVNSKALGLPVSKL
notes: as for B1
Km [4]: 1530 ± 720 µM | kcat [4]: 3.46 ± 0.0838 s⁻¹ | kcat/Km [4]: 2570 ± 1040 M⁻¹ s⁻¹

B3: HPPR3 (Arabidopsis thaliana) (protein)
chain: MAESSEPPVVLLHRPPSLTFMDEILTREFRTLITDTSSSESLPSFFPRHASSARAFVISGRLPVTDELLSHLPSLQILVCTSVGIDHIDLAACKRRGIVITNAGNAFSDDVADCAVGLLISVLRRIPAADRYVRSGNWAKFGDFQLGSKVSGKRVGIVGLGSIGSFVAKRLESFGCVISYNSRSQKQSSPYRYYSDILSLAENNDVLVLCCSLTDETHHIVNREVMELLGKDGVVINVGRGKLIDEKEMVKCLVDGVIGGAGLDVFENEPAVPQELFGLDNVVLSPHFAVATPGSLDNVAQIALANLKAFFSNRPLLSPVQLD
notes: as for B1
Km [5]: 370 ± 60 µM | kcat [5]: 0.285 ± 0.0158 s⁻¹ | kcat/Km [5]: 785 ± 87.3 M⁻¹ s⁻¹ | Km [6]: 1520 ± 50 µM | kcat [6]: 0.611 ± 0.0692 s⁻¹ | kcat/Km [6]: 402 ± 49.2 M⁻¹ s⁻¹ | Km [7]: 3570 ± 480 µM | kcat [7]: 0.0518 ± 0.0035 s⁻¹ | kcat/Km [7]: 14.8 ± 2.83 M⁻¹ s⁻¹
